Assay [1] concerns the target FGF receptor 2b (FGFR2b) naturally expressed on 4MBr-5 rhesus monkey bronchial epithelial cells (rhesus monkey). As to the kind of experiment: cell-based or functional assay.
The target of assay [2] is FGFR2 receptor endogenously expressed on mammary adenocarcinoma MCF7 cells (UniProt P21802). As to the kind of experiment: cell-based or functional assay.
Sequence of FGFR2 receptor endogenously expressed on mammary adenocarcinoma MCF7 cells (P21802 22-821): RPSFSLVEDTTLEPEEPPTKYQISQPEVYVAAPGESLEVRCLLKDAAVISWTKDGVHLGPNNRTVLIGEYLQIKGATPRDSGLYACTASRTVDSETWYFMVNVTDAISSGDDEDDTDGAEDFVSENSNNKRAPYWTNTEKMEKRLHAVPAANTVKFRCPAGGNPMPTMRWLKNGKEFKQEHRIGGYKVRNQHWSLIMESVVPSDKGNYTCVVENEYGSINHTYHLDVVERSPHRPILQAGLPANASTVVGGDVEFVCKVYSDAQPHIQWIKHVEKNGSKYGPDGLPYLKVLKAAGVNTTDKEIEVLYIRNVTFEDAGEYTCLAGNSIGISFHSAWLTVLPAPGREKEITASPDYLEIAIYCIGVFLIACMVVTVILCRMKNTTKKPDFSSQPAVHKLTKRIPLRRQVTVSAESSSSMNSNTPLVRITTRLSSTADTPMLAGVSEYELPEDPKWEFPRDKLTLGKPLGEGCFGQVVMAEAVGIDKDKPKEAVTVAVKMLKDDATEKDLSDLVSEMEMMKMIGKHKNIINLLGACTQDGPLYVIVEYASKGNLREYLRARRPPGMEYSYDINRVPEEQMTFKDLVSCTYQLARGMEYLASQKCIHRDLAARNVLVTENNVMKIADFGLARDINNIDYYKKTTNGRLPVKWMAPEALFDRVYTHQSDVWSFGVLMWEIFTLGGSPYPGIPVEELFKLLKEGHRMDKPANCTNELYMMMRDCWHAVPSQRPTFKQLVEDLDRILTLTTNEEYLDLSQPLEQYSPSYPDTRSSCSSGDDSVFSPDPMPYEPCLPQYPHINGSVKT

“FGF10 from Falco peregrinus (FGF10-Fp) (ligand)” registered an ED50, proliferation of 4MBr-5 cells (resazurin) in assay [1] of 12.7 ng/mL.

On to “FGF10 single-point mutant L152F (ligand)”, for which the ED50, proliferation of lung epithelial 4MBr-5 cells (resazurin) in assay [1] turned out to be 1.4 ng/mL.

On to “FGF10-Fp+L152F (single point variant of FGF10-Fp) (ligand)”, for which, in assay [1], the ED50, proliferation of 4MBr-5 cells (resazurin) worked out at 6.1 ng/mL.

With “FGF10-STAB (4-point mutant of FGF10: V123I+L152F+Q175E+N181D) (ligand)”, in assay [1], the ED50 (ng/mL) determined using 4MBr-5 cells; no preincubation (control) was 0.37 ng/mL, the ED50 (ng/mL) determined using 4MBr-5 cells; protein preincubated at 37° C. for 1 day is 1 ng/mL, the ED50 (ng/mL) determined using 4MBr-5 cells; protein preincubated at 37° C. for 3 days stood at 0.26 ng/mL and the ED50 (ng/mL) determined using 4MBr-5 cells; protein preincubated at 37° C. for 7 days amounted to 11.1 ng/mL. The same substance came in with an ED50, proliferation of 4MBr-5 cells (resazurin) in assay [1] of 0.21 ng/mL. Moreover, in assay [2], the pKrox24 (MapERK)-DsRed reporter induction in MCF7 cells, 100 ng/mL, 24 hr (times, against FGF10-wt) is 2.5.

“FGF10-wt (recombinant mature human FGF10, Leu40-Ser208, with N-terminal His-tag and thrombin cleavage site) (ligand)”: in assay [1], the ED50 (ng/mL) determined using 4MBr-5 cells; no preincubation (control) was found to be 0.95 ng/mL, the ED50 (ng/mL) determined using 4MBr-5 cells; protein preincubated at 37° C. for 1 day was 12.5 ng/mL, the ED50 (ng/mL) determined using 4MBr-5 cells; protein preincubated at 37° C. for 3 days was 21.1 ng/mL and the ED50 (ng/mL) determined using 4MBr-5 cells; protein preincubated at 37° C. for 7 days came to 34.8 ng/mL. The same substance registered an ED50, proliferation of lung epithelial 4MBr-5 cells (resazurin) in assay [1] of 0.8 ng/mL.

For the substance FGF10^69-208+L152F (ligand), the ED50, proliferation of 4MBr-5 cells (resazurin) in assay [1] turned out to be 1.9 ng/mL.

The record behind these values is patent US20250353888A1.
